Experimental data: patent US20250101122A1 (KELONIA THERAPEUTICS, published 2025)

T1: recombinant, phycoerythrin (PE) labeled, BCMA extracellular domain-FC fusion protein (BCMA-PE) (Homo sapiens (Human), UniProt Q02223 1-54, phycoerythrin (PE) label, site not stated)
T1 construct: Staining reagent; not shown: Fc part
T1 sequence: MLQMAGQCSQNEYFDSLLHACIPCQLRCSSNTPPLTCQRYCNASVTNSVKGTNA


Target: T1, recombinant, phycoerythrin (PE) …
Assay: flow cytometry; transduced PBMCs stained with PE-labelled BCMA extracellular domain-Fc (BCMA-PE)
Method: 5×10⁵ human PBMCs were plated in each well of a 24-well plate. Cells were transduced with recombinant lentiviruses LV 1 to LV 19 at a MOI 2 based on the Jurkat functional titer, or a 0.5 mL volumetric transduction if MOI 2 was not achievable. Seven days post-transduction, PBMCs were harvested and stained with BCMA-PE and analyzed by flow cytometry to assess the percentage of anti-BCMA CAR expressing cells. FIG. 2B.

Binder	binding result
anti-BCMA CAR of recombinant lentivirus LV 18 (SEQ ID NO: 837) (other, Chimeric antigen receptor on the surface of transduced cells; CD8α hinge and TM, CD137, CD3ζ) EVQLLESGGGLVQPGGSLRLSCAASGFTFSSEGMSWVRQAPGKERELVSAISGSGDHTYYADSVRGRFTISRDNSKNTLYLQMNSLRAEDTAVYYCNALEGGPTTAIQPGGPDYWGQGTQVTVSSTTTPAPRPPTPAPTIASQPLSLRPEACRPAAGGAVHTRGLDFACDIYIWAPLAGTCGVLLLSLVITLYCKRGRKKLLYIFKQPFMRPVQTTQEEDGCSCRFPEEEEGGCELRVKFSRSADAPAYQQGQNQLYNELNLGRREEYDVLDKRRGRDPEMGGKPRRKNPQEGLYNELQKDKMAEAYSEIGMKGERRRGKGHDGLYQGLSTATKDTYDALHMQALPPR	binds
anti-BCMA CAR of recombinant lentivirus LV 9 (SEQ ID NO: 597) (other, Chimeric antigen receptor on the surface of transduced cells; CD8α hinge and TM, CD137, CD3ζ) EVQLLESGGGLVQPGGSLRLSCAASGFTFGSEAMSWVRQAPGKERELVSAISGSGEVTYYADSVKGRFTISRDNSKNTLYLQMNSLRAEDTAVYYCQRLVEAKRHWGQGTQVTVSSTTTPAPRPPTPAPTIASQPLSLRPEACRPAAGGAVHTRGLDFACDIYIWAPLAGTCGVLLLSLVITLYCKRGRKKLLYIFKQPFMRPVQTTQEEDGCSCRFPEEEEGGCELRVKFSRSADAPAYQQGQNQLYNELNLGRREEYDVLDKRRGRDPEMGGKPRRKNPQEGLYNELQKDKMAEAYSEIGMKGERRRGKGHDGLYQGLSTATKDTYDALHMQALPPR	binds
anti-BCMA CAR of recombinant lentivirus LV 10 (SEQ ID NO: 621) (other, Chimeric antigen receptor on the surface of transduced cells; CD8α hinge and TM, CD137, CD3ζ) EVQLLESGGGLVQPGGSLRLSCAASGFTFESEAMSWYRQAPGKERELVSVITSEGSTYYADSVKGRFTISRDNSKNTLYLQMNSLRAEDTAVYYCAHIEWETRLNWGQGTQVTVSSTTTPAPRPPTPAPTIASQPLSLRPEACRPAAGGAVHTRGLDFACDIYIWAPLAGTCGVLLLSLVITLYCKRGRKKLLYIFKQPFMRPVQTTQEEDGCSCRFPEEEEGGCELRVKFSRSADAPAYQQGQNQLYNELNLGRREEYDVLDKRRGRDPEMGGKPRRKNPQEGLYNELQKDKMAEAYSEIGMKGERRRGKGHDGLYQGLSTATKDTYDALHMQALPPR	binds
anti-BCMA CAR of recombinant lentivirus LV 15 (SEQ ID NO: 741) (other, Chimeric antigen receptor on the surface of transduced cells; CD8α hinge and TM, CD137, CD3ζ) EVQLLESGGGLVQPGGSLRLSCAASGFTFDSYTMSWYRQAPGKERELVSAISGHGDSTYYADSVKGRFTISRDNSKNTLYLQMNSLRAEDTAVYYCTRISITTEWLAGDYWGQGTQVTVSSTTTPAPRPPTPAPTIASQPLSLRPEACRPAAGGAVHTRGLDFACDIYIWAPLAGTCGVLLLSLVITLYCKRGRKKLLYIFKQPFMRPVQTTQEEDGCSCRFPEEEEGGCELRVKFSRSADAPAYQQGQNQLYNELNLGRREEYDVLDKRRGRDPEMGGKPRRKNPQEGLYNELQKDKMAEAYSEIGMKGERRRGKGHDGLYQGLSTATKDTYDALHMQALPPR	binds
anti-BCMA CAR of recombinant lentivirus LV 8 (SEQ ID NO: 525) (other, Chimeric antigen receptor on the surface of transduced cells; CD8α hinge and TM, CD137, CD3ζ) DIQMTQSPSSLSASVGDRVTITCQASQDIANYLNWYQQKPGKAPKLLIYDASNLETGVPSRFSGSGSGTDFTFTISSLQPEDIATYYCQQHFNLPLTFGGGTKVEIKGGGGSGGGGSGGGGSGGGGSQITLKESGPTLVKPTQTLTLTCTFSGFSLSTSGVGVGWIRQPPGKALEWLALIYWNDEKRYSPSLKSRLTITKDTSKNQVVLTMTNMDPVDTAVYYCAREGSHDYKSSNWFDPWGQGTLVTVSSTTTPAPRPPTPAPTIASQPLSLRPEACRPAAGGAVHTRGLDFACDIYIWAPLAGTCGVLLLSLVITLYCKRGRKKLLYIFKQPFMRPVQTTQEEDGCSCRFPEEEEGGCELRVKFSRSADAPAYQQGQNQLYNELNLGRREEYDVLDKRRGRDPEMGGKPRRKNPQEGLYNELQKDKMAEAYSEIGMKGERRRGKGHDGLYQGLSTATKDTYDALHMQALPPR	binds
anti-BCMA CAR of recombinant lentivirus LV 3 (SEQ ID NO: 261) (other, Chimeric antigen receptor on the surface of transduced cells; CD8α hinge and TM, CD137, CD3ζ) QVQLVESGGGVVQPGRSLRLSCAASGFTFSSYGMHWVRQAPGKGLEWVAVISYEGSNKYYADSVKGRFTISRDNSKNTLYLQMNSLRAEDTAVYYCARELGDGMDVWGQGTTVTVSSGGGGSGGGGSGGGGSGGGGSEIVLTQSPATLSLSPGERATLSCRASQSVSSYLAWFQQKPGQAPRLLIYDASNRATGIPARFSGSGSGTDFTLTISSLEPEDFAVYYCQQRVDLWTFGGGTKVEIKTTTPAPRPPTPAPTIASQPLSLRPEACRPAAGGAVHTRGLDFACDIYIWAPLAGTCGVLLLSLVITLYCKRGRKKLLYIFKQPFMRPVQTTQEEDGCSCRFPEEEEGGCELRVKFSRSADAPAYQQGQNQLYNELNLGRREEYDVLDKRRGRDPEMGGKPRRKNPQEGLYNELQKDKMAEAYSEIGMKGERRRGKGHDGLYQGLSTATKDTYDALHMQALPPR	binds
anti-BCMA CAR of recombinant lentivirus LV 7 (SEQ ID NO: 477) (other, Chimeric antigen receptor on the surface of transduced cells; CD8α hinge and TM, CD137, CD3ζ) DIQMTQSPSSLSASVGDRVTITCRASQSISSYLNWYQQKPGKAPKLLIYAASSLQSGVPSRFSGSGSGTDFTLTISSLQPEDFATYYCQQAHSSPITFGGGTKVEIKGGGGSGGGGSGGGGSGGGGSEVQLLESGGGLVQPGGSLRLSCAASGFTFSNYAMSWVRQAPGKGLEWVSAISGSGGSTYYADSVKGRFTISRDNSKNTLYLQMNSLRAEDTAVYYCARPGDGYYEGVYFDYWGQGTLVTVSSTTTPAPRPPTPAPTIASQPLSLRPEACRPAAGGAVHTRGLDFACDIYIWAPLAGTCGVLLLSLVITLYCKRGRKKLLYIFKQPFMRPVQTTQEEDGCSCRFPEEEEGGCELRVKFSRSADAPAYQQGQNQLYNELNLGRREEYDVLDKRRGRDPEMGGKPRRKNPQEGLYNELQKDKMAEAYSEIGMKGERRRGKGHDGLYQGLSTATKDTYDALHMQALPPR	binds
anti-BCMA CAR of recombinant lentivirus LV 1 (SEQ ID NO: 189) (other, Chimeric antigen receptor on the surface of transduced cells; CD8α hinge and TM, CD137 costimulatory domain, CD3ζ) EIVLTQSPATLSLSPGERATLSCRASQSVSSYLAWYQQKPGQAPRLLIYDASNRATGIPARFSGSGSGTDFTLTISSLEPEDFAVYYCQQRVVYPITFGGGTKVEIKGGGGSGGGGSGGGGSGGGGSQITLKESGPTLVKPTQTLTLTCTFSGFSLSTSGVGVGWIRQPPGKALEWLALIYWNDEKRYSPSLKSRLTITKDTSKNQVVLTMTNMDPVDTAVYYCARDEYGGFDIWGQGTMVTVSSTTTPAPRPPTPAPTIASQPLSLRPEACRPAAGGAVHTRGLDFACDIYIWAPLAGTCGVLLLSLVITLYCKRGRKKLLYIFKQPFMRPVQTTQEEDGCSCRFPEEEEGGCELRVKFSRSADAPAYQQGQNQLYNELNLGRREEYDVLDKRRGRDPEMGGKPRRKNPQEGLYNELQKDKMAEAYSEIGMKGERRRGKGHDGLYQGLSTATKDTYDALHMQALPPR	binds
anti-BCMA CAR of recombinant lentivirus LV 2 (SEQ ID NO: 237) (other, Chimeric antigen receptor on the surface of transduced cells; CD8α hinge and TM, CD137, CD3ζ) EIVLTQSPATLSLSPGERATLSCRASQSVSSYLAWYQQKPGQAPRLLIYDASNRATGIPARFSGSGSGTDFTLTISSLEPEDFAVYYCQQRFDYPITFGGGTKVEIKGGGGSGGGGSGGGGSGGGGSQITLKESGPTLVKPTQTLTLTCTFSGFSLSTSGVGVGWIRQPPGKALEWLALIYWNDDKRYSPSLKSRLTITKDTSKNQVVLTMTNMDPVDTAVYYCARDEYGGFDIWGQGTMVTVSSTTTPAPRPPTPAPTIASQPLSLRPEACRPAAGGAVHTRGLDFACDIYIWAPLAGTCGVLLLSLVITLYCKRGRKKLLYIFKQPFMRPVQTTQEEDGCSCRFPEEEEGGCELRVKFSRSADAPAYQQGQNQLYNELNLGRREEYDVLDKRRGRDPEMGGKPRRKNPQEGLYNELQKDKMAEAYSEIGMKGERRRGKGHDGLYQGLSTATKDTYDALHMQALPPR	binds
anti-BCMA CAR of recombinant lentivirus LV 12 (SEQ ID NO: 669) (other, Chimeric antigen receptor on the surface of transduced cells; CD8α hinge and TM, CD137, CD3ζ) EVQLLESGGGLVQPGGSLRLSCAASGFTFEDYAMSWFRQAPGKEREGVSAISGKGGSTYYADSVKGRFTISRDNSKNTLYLQMNSLRAEDTAVYYCAVLDEEAGAEGGYWGQGTQVTVSSTTTPAPRPPTPAPTIASQPLSLRPEACRPAAGGAVHTRGLDFACDIYIWAPLAGTCGVLLLSLVITLYCKRGRKKLLYIFKQPFMRPVQTTQEEDGCSCRFPEEEEGGCELRVKFSRSADAPAYQQGQNQLYNELNLGRREEYDVLDKRRGRDPEMGGKPRRKNPQEGLYNELQKDKMAEAYSEIGMKGERRRGKGHDGLYQGLSTATKDTYDALHMQALPPR	binds
anti-BCMA CAR of recombinant lentivirus LV 13 (SEQ ID NO: 693) (other, Chimeric antigen receptor on the surface of transduced cells; CD8α hinge and TM, CD137, CD3ζ) EVQLLESGGGLVQPGGSLRLSCAASGFTFDRYAMSWFRQAPGKEREGVSAISTSGDSTYYADSVKGRFTISRDNSKNTLYLQMNSLRAEDTAVYYCAVLDEEAGAEGGYWGQGTQVTVSSTTTPAPRPPTPAPTIASQPLSLRPEACRPAAGGAVHTRGLDFACDIYIWAPLAGTCGVLLLSLVITLYCKRGRKKLLYIFKQPFMRPVQTTQEEDGCSCRFPEEEEGGCELRVKFSRSADAPAYQQGQNQLYNELNLGRREEYDVLDKRRGRDPEMGGKPRRKNPQEGLYNELQKDKMAEAYSEIGMKGERRRGKGHDGLYQGLSTATKDTYDALHMQALPPR	binds
anti-BCMA CAR of recombinant lentivirus LV 11 (SEQ ID NO: 645) (other, Chimeric antigen receptor on the surface of transduced cells; CD8α hinge and TM, CD137, CD3ζ) EVQLLESGGGLVQPGGSLRLSCAASGFTFDEYTMHWFRQAPGKEREFVSAISGGGSETYYADSVKGRFTISRDNSKNTLYLQMNSLRAEDTAVYYCAAGGEEAGVGYWGQGTQVTVSSTTTPAPRPPTPAPTIASQPLSLRPEACRPAAGGAVHTRGLDFACDIYIWAPLAGTCGVLLLSLVITLYCKRGRKKLLYIFKQPFMRPVQTTQEEDGCSCRFPEEEEGGCELRVKFSRSADAPAYQQGQNQLYNELNLGRREEYDVLDKRRGRDPEMGGKPRRKNPQEGLYNELQKDKMAEAYSEIGMKGERRRGKGHDGLYQGLSTATKDTYDALHMQALPPR	binds
anti-BCMA CAR of recombinant lentivirus LV 5 (SEQ ID NO: 357) (other, Chimeric antigen receptor on the surface of transduced cells; CD8α hinge and TM, CD137, CD3ζ) QVQLVESGGGLVKPGGSLRLSCAASGFTFSDYYMSWIRQAPGKGLEWVSYISSSGSTIYYADSVKGRFTISRDNAKNSLYLQMNSLRAEDTAVYYCARDQGNYGVDVWGQGTTVTVSSGGGGSGGGGSGGGGSGGGGSDIQMTQSPSTLSASVGDRVTITCRASQSISSWLAWYQQKPGKAPKLLIYEASSLESGVPSRFSGSGSGTEFTLTISSLQPDDFATYYCQQSDSHPITFGGGTKVEIKTTTPAPRPPTPAPTIASQPLSLRPEACRPAAGGAVHTRGLDFACDIYIWAPLAGTCGVLLLSLVITLYCKRGRKKLLYIFKQPFMRPVQTTQEEDGCSCRFPEEEEGGCELRVKFSRSADAPAYQQGQNQLYNELNLGRREEYDVLDKRRGRDPEMGGKPRRKNPQEGLYNELQKDKMAEAYSEIGMKGERRRGKGHDGLYQGLSTATKDTYDALHMQALPPR	binds
